We go through 2 substances from patent US20050229265.

The target of data set [1] is T1, P element transposase (delta 2-3) (UniProt Q7M3K2).
T1 sequence: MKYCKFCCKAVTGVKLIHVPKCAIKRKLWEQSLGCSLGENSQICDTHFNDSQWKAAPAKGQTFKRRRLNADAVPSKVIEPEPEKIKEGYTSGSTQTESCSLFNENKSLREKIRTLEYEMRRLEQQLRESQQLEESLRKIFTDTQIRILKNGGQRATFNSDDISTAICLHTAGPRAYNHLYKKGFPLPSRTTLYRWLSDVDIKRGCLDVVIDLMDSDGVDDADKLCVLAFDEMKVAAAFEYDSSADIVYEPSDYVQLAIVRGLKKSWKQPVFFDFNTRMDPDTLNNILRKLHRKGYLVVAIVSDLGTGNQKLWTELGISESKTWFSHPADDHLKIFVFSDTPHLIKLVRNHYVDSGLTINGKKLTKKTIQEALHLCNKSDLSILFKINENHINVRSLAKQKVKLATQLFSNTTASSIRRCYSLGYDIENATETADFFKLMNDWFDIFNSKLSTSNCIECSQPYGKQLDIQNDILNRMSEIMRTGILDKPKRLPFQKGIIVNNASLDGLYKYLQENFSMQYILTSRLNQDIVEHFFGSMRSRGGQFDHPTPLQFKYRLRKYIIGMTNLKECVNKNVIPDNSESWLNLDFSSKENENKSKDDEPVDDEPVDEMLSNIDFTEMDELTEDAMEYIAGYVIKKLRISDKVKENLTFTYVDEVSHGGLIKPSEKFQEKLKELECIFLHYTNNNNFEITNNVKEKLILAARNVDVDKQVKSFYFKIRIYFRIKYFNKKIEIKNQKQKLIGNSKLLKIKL
In words: cell_activity. The note with it: germline remobilization in Drosophila, delta 2-3 at 99B.

The test system of data set [2] is piggyBac transposase. In words: cell_activity. As to conditions: germline remobilization rate in Drosophila with constitutive transposase; TTAA target; 10% with heat shock helper.

Turning to XP (P element) transposon, in data set [1], the activity came out at 50%. The substance piggyBac transposon pB[w+] had an activity in data set [2] of 60%.
